Laboratory results taken from US20240309103A1 (Regeneron, published 2024).

What was measured:
hNPR1-mFc:hBNP complex [1] = molecular target: T1, hNPR1-mFc:hBNP complex (human, UniProt P16860 103-134); experiment: SPR, mAb captured, 25C
T1 construct: also called human NPR1 complexed to BNP
Experimental: (§1) Equilibrium dissociation constant (KD) for different NPR1 reagents binding to purified anti-NPR1 monoclonal antibodies (mAbs) were determined using a real-time surface plasmon resonance based Biacore 4000 biosensor. All binding studies were performed in 10 mM HEPES, 150 mM NaCl, 3 mM EDTA, and 0.05% v/v Surfactant Tween-20, pH 7.4 (HBS-ET) running buffer at 25° C. and 37° C. The Biacore CM5 sensor chip surface was first derivatized by amine coupling with either mouse anti-human Fc specific mAb (GE Healthcare, #BR100839) or goat anti-human Fcy specific polyclonal antibody (Jackson ImmunoResearch Laboratories, #BR-1008-39) to capture anti-NPR1 mAbs.

mfNPR1-mFc:hANP complex [2] = molecular target: T2, mfNPR1-mFc:hANP complex (monkey; human, UniProt P01160 124-151); experiment: SPR, mAb captured, 25C
T2 construct: also called monkey NPR1 complexed to ANP
Experimental: as §1

mfNPR1-mFc [3] = molecular target: T3, mfNPR1-mFc (monkey); experiment: SPR, mAb captured, 25C
T3 construct: also called dimeric monkey NPR1
T3 chain: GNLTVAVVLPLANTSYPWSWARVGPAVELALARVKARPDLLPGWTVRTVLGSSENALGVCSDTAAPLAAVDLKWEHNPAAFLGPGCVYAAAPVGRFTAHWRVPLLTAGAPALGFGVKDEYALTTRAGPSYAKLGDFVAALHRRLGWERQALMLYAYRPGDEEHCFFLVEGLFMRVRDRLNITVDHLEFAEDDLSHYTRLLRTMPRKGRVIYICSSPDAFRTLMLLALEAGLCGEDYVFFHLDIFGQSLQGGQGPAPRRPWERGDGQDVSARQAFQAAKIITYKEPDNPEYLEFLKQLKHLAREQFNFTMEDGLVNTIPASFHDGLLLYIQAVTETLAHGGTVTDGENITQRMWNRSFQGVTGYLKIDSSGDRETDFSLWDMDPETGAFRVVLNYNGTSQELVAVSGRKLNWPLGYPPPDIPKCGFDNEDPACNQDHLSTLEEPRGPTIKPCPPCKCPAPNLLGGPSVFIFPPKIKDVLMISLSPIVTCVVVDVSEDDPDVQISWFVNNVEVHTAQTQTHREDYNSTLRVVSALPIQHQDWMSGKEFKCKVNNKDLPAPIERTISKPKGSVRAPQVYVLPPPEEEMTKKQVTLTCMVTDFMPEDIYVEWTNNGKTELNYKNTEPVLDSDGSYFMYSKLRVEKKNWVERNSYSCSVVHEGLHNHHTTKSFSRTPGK
Experimental: as §1

mfNPR1-mFc:hBNP complex = molecular target: T4, mfNPR1-mFc:hBNP complex (monkey; human, UniProt P16860 103-134); experiment: SPR, mAb captured, 25C
T4 construct: also called monkey NPR1 complexed to BNP
Experimental: as §1

[4] = molecular target: T5, hNPR1-mFc:hANP or hNPR1-hFc:hANP complex (human, UniProt P01160 124-151); experiment: SPR, mAb captured, 25C
T5 construct: also called human NPR1 complexed to ANP
Experimental: as §1

hNPR1-mFc:hBNP complex [5] = molecular target: T1, hNPR1-mFc:hBNP complex; experiment: SPR, mAb captured, 37C
Experimental: as §1

mfNPR1-mFc:hANP complex [6] = molecular target: T2, mfNPR1-mFc:hANP complex; experiment: SPR, mAb captured, 37C
Experimental: as §1

mfNPR1-mFc [7] = molecular target: T3, mfNPR1-mFc; experiment: SPR, mAb captured, 37C
Experimental: as §1

[8] = molecular target: T5, hNPR1-mFc:hANP or hNPR1-hFc:hANP complex; experiment: SPR, mAb captured, 37C
Experimental: as §1

B1: mAb22809 (antibody, human IgG4, V domains shown)
VH: QLQLRESGPGLVKPSETLSLTCTVSGGSINDNSFFWDWIRQTPGRGLEWIGNIFFDGNTYYTPSLKSRVIISVDMSQNQFSLRLTSVTAADTALYYCARHKRSMTAWGFFDYWGQGTLVTVSS
VL: DIQMTQSPSSLSASVGDRVTITCRASKRINTYLNWYQQKPGKAPKVLIYSASNLQSGVPSRFSGSGSGTDFTLTINSLQPEDFATYFCQQSFSAPPITFGQGTRLEIK
In the case of B1, the “100 nM Ag Bound (RU)” value (hNPR1-mFc:hBNP complex [1]) is reported as 51 RU, the Kd (hNPR1-mFc:hBNP complex [1]) is reported as 6.72 nM and the koff (hNPR1-mFc:hBNP complex [1]) is reported as 0.000221 s⁻¹. The kon (hNPR1-mFc:hBNP complex [1]) was 32800 M⁻¹ s⁻¹, the t½ (hNPR1-mFc:hBNP complex [1]) was 0.873 h and the “100 nM Ag Bound (RU)” value (mfNPR1-mFc:hANP complex [2]) was 86 RU. The Kd (mfNPR1-mFc:hANP complex [2]) was 3.88 nM, the koff (mfNPR1-mFc:hANP complex [2]) was 0.000173 s⁻¹ and the kon (mfNPR1-mFc:hANP complex [2]) was 44700 M⁻¹ s⁻¹. For the same binder, the t½ (mfNPR1-mFc:hANP complex [2]) was 1.11 h, the “100 nM Ag Bound (RU)” value (mfNPR1-mFc [3]) was 6 RU and the binding result (mfNPR1-mFc [3]) was “no binding (tested: 100 nM)”. For the same binder, the “100 nM Ag Bound (RU)” value (mfNPR1-mFc:hBNP complex) was 80 RU, the Kd (mfNPR1-mFc:hBNP complex) was 3.85 nM and the koff (mfNPR1-mFc:hBNP complex) was 0.00016 s⁻¹. For the same binder, the kon (mfNPR1-mFc:hBNP complex) was 41400 M⁻¹ s⁻¹, the t½ (mfNPR1-mFc:hBNP complex) was 1.21 h and the “100 nM Ag Bound (RU)” value [4] was 53 RU. It also gave a Kd [4] of 4.94 nM, a koff [4] of 0.000193 s⁻¹ and a kon [4] of 39200 M⁻¹ s⁻¹. For the same binder, the t½ [4] was 0.995 h, the “100 nM Ag Bound (RU)” value (hNPR1-mFc:hBNP complex [5]) was 63 RU and the Kd (hNPR1-mFc:hBNP complex [5]) was 3.56 nM. The koff (hNPR1-mFc:hBNP complex [5]) was 0.000166 s⁻¹, the kon (hNPR1-mFc:hBNP complex [5]) was 46500 M⁻¹ s⁻¹ and the t½ (hNPR1-mFc:hBNP complex [5]) was 1.16 h. The “100 nM Ag Bound (RU)” value (mfNPR1-mFc:hANP complex [6]) was 106 RU, the Kd (mfNPR1-mFc:hANP complex [6]) was 3.7 nM and the koff (mfNPR1-mFc:hANP complex [6]) was 0.000205 s⁻¹. The kon (mfNPR1-mFc:hANP complex [6]) was 55500 M⁻¹ s⁻¹, the t½ (mfNPR1-mFc:hANP complex [6]) was 0.937 h and the “100 nM Ag Bound (RU)” value (mfNPR1-mFc [7]) was 8 RU. For the same binder, the “100 nM Ag Bound (RU)” value [8] was 68 RU, the Kd [8] was 3.29 nM and the koff [8] was 0.000166 s⁻¹. The kon [8] was 50400 M⁻¹ s⁻¹ and the t½ [8] was 1.16 h.

B2: mAb25491 (antibody, human IgG4, V domains shown)
VH: QVQLVQSGAEVMKPGASVKVSCKASGYTFTGYYIHWVRQAPGQGLEWMGWITPNSGATNYAQKFQGRVTLTRDTSISTAYMELTRLKSDDTAVYYCARGGQLEFFYYYYGMDVWGQGTTVTVSS
VL: DIQMTQSPSSLSASAGDRVTITCRASQSIDSYLNWYQQKPGKAPKLLISATSGFQSGVPSRFSGSGSGTDFTLTISSLQPEDFGTYYCQQSYTTPITFGQGTRLEIK
B2 was tested, and the “100 nM Ag Bound (RU)” value (hNPR1-mFc:hBNP complex [1]) was 72 RU, the Kd (hNPR1-mFc:hBNP complex [1]) was 0.908 nM and the koff (hNPR1-mFc:hBNP complex [1]) was 4.96e-05 s⁻¹. For the same binder, the kon (hNPR1-mFc:hBNP complex [1]) was 54600 M⁻¹ s⁻¹, the t½ (hNPR1-mFc:hBNP complex [1]) was 3.88 h and the “100 nM Ag Bound (RU)” value (mfNPR1-mFc:hANP complex [2]) was 111 RU. The Kd (mfNPR1-mFc:hANP complex [2]) was 0.757 nM, the koff (mfNPR1-mFc:hANP complex [2]) was 4.55e-05 s⁻¹ and the kon (mfNPR1-mFc:hANP complex [2]) was 60100 M⁻¹ s⁻¹. The t½ (mfNPR1-mFc:hANP complex [2]) was 4.23 h, the “100 nM Ag Bound (RU)” value (mfNPR1-mFc [3]) was 81 RU and the Kd (mfNPR1-mFc [3]) was 1.4 nM. For the same binder, the koff (mfNPR1-mFc [3]) was 7.54e-05 s⁻¹, the kon (mfNPR1-mFc [3]) was 54000 M⁻¹ s⁻¹ and the t½ (mfNPR1-mFc [3]) was 2.55 h. The “100 nM Ag Bound (RU)” value (mfNPR1-mFc:hBNP complex) was 110 RU, the Kd (mfNPR1-mFc:hBNP complex) was 0.632 nM and the koff (mfNPR1-mFc:hBNP complex) was 3.71e-05 s⁻¹. For the same binder, the kon (mfNPR1-mFc:hBNP complex) was 58600 M⁻¹ s⁻¹, the t½ (mfNPR1-mFc:hBNP complex) was 5.19 h and the “100 nM Ag Bound (RU)” value [4] was 71 RU. The Kd [4] was 0.794 nM, the koff [4] was 4.15e-05 s⁻¹ and the kon [4] was 52200 M⁻¹ s⁻¹. For the same binder, the t½ [4] was 4.64 h, the “100 nM Ag Bound (RU)” value (hNPR1-mFc:hBNP complex [5]) was 96 RU and the Kd (hNPR1-mFc:hBNP complex [5]) was 2.45 nM. The koff (hNPR1-mFc:hBNP complex [5]) was 0.000134 s⁻¹, the kon (hNPR1-mFc:hBNP complex [5]) was 54700 M⁻¹ s⁻¹ and the t½ (hNPR1-mFc:hBNP complex [5]) was 1.44 h. For the same binder, the “100 nM Ag Bound (RU)” value (mfNPR1-mFc:hANP complex [6]) was 148 RU, the Kd (mfNPR1-mFc:hANP complex [6]) was 1.49 nM and the koff (mfNPR1-mFc:hANP complex [6]) was 0.000106 s⁻¹. The kon (mfNPR1-mFc:hANP complex [6]) was 71000 M⁻¹ s⁻¹, the t½ (mfNPR1-mFc:hANP complex [6]) was 1.82 h and the “100 nM Ag Bound (RU)” value (mfNPR1-mFc [7]) was 114 RU. The Kd (mfNPR1-mFc [7]) was 3.49 nM, the koff (mfNPR1-mFc [7]) was 0.000164 s⁻¹ and the kon (mfNPR1-mFc [7]) was 47000 M⁻¹ s⁻¹. For the same binder, the t½ (mfNPR1-mFc [7]) was 1.17 h, the “100 nM Ag Bound (RU)” value [8] was 96 RU and the Kd [8] was 1.95 nM. The koff [8] was 0.000111 s⁻¹, the kon [8] was 56900 M⁻¹ s⁻¹ and the t½ [8] was 1.73 h.
